Data reported in US20090280473A1.

Key:
Assay in all cases: cell-based or functional assay
[1] = target: Semliki Forest virus E1 fusion protein, low pH-induced trimeric form (full-length viral E1 of cell-b (Semliki Forest virus) (UniProt P03315))
[2] = target: Dengue virus 1 (DV1, strain Western Pacific) E fusion protein (Dengue virus 1) (UniProt P17763)
[3] = target: Dengue virus 2 (DV2, strain New Guinea C) E fusion protein (Dengue virus 2) (UniProt P14340)

DIII (SFV E1 domain III, Met + residues 291-383) (from UniProt P03315 1106-1198)
percent inhibition of SFV fusion in the FIA at ˜80 µM [1]: 60 % inhibition

DIIIS (SFV E1 domain III plus stem, Met + residues 291-412) (from UniProt P03315 1106-1227)
inhibition of SFV fusion with BHK cells, fusion-infection assay (FIA) [1]: 6 µM

DV2DIIIH1 (dengue virus 2 E domain III plus helix 1 of the stem, residues 296-415) (from UniProt P14340 576-695)
percent inhibition of DV1 fusion in the FIA at 50 µM [2]: 70 % inhibition
percent inhibition of DV2 fusion in the FIA at 50 µM [3]: 70 % inhibition
